# Substitutions are numbered along the chain they refer to. Names and notes keep the numbering of the source.
# T1: TNFR1 (Homo sapiens, UniProt P19438)
# T1 chain: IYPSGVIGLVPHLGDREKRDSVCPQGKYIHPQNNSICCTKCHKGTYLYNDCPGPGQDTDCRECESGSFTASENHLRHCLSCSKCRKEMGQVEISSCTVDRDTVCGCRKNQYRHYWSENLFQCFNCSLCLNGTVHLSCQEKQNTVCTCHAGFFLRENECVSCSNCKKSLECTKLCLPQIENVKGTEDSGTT
# B1: R21L (designed binder)
# chain: MTLQELLREEALRRAEAEAFLYALELLAEKFPEQKEYLLDLAEEIESQIRSLSGVDVEDVRKFLDKEWAWVKELLAEHPAELAEVEAARAARLAELRAEVEAKVAA
# B2: V100Y (designed binder)
# chain: B1 chain with L21R, V100Y
# B3: M1Y (designed binder)
# chain: B1 chain with M1Y, L21R
# B4: K30N (designed binder)
# chain: B1 chain with L21R, K30N
# B5: Y22L (designed binder)
# chain: B1 chain with L21R, Y22L
# B6: L26C (designed binder)
# chain: B1 chain with L21R, L26C
# B7: A98S (designed binder)
# chain: B1 chain with L21R, A98S
# B8: R97Q (designed binder)
# chain: B1 chain with L21R, R97Q
# B9: L27F (designed binder)
# chain: B1 chain with L21R, L27F
# B10: A83M (designed binder)
# chain: B1 chain with L21R, A83M
# B11: A91Y (designed binder)
# chain: B1 chain with L21R, A91Y
# B12: M1G (designed binder)
# chain: B1 chain with M1G, L21R
# B13: I49P (designed binder)
# chain: B1 chain with L21R, I49P
# B14: D59G (designed binder)
# chain: B1 chain with L21R, D59G
# B15: Q48C (designed binder)
# chain: B1 chain with L21R, Q48C
# B16: L6F (designed binder)
# chain: B1 chain with L6F, L21R
# B17: E5K (designed binder)
# chain: B1 chain with E5K, L21R
# B18: A87C (designed binder)
# chain: B1 chain with L21R, A87C
# B19: E77I (designed binder)
# chain: B1 chain with L21R, E77I
# B20: E99A (designed binder)
# chain: B1 chain with L21R, E99A
# B21: A42T (designed binder)
# chain: B1 chain with L21R, A42T
# B22: K35P (designed binder)
# chain: B1 chain with L21R, K35P
# B23: E33T (designed binder)
# chain: B1 chain with L21R, E33T
# B24: E84C (designed binder)
# chain: B1 chain with L21R, E84C
# B25: E58A (designed binder)
# chain: B1 chain with L21R, E58A
# B26: A69L (designed binder)
# chain: B1 chain with L21R, A69L
# B27: Y37E (designed binder)
# chain: B1 chain with L21R, Y37E
# B28: I49N (designed binder)
# chain: B1 chain with L21R, I49N
# B29: W70M (designed binder)
# chain: B1 chain with L21R, W70M
# B30: E81M (designed binder)
# chain: B1 chain with L21R, E81M
# B31: L7I (designed binder)
# chain: B1 chain with L7I, L21R
# B32: S53A (designed binder)
# chain: B1 chain with L21R, S53A
# B33: A80P (designed binder)
# chain: B1 chain with L21R, A80P
# B34: L82P (designed binder)
# chain: B1 chain with L21R, L82P
# B35: K62I (designed binder)
# chain: B1 chain with L21R, K62I
# B36: E46R (designed binder)
# chain: B1 chain with L21R, E46R
# B37: A88I (designed binder)
# chain: B1 chain with L21R, A88I
# B38: A76V (designed binder)
# chain: B1 chain with L21R, A76V
# B39: E25C (designed binder)
# chain: B1 chain with L21R, E25C
# B40: E10F (designed binder)
# chain: B1 chain with E10F, L21R
# B41: A90H (designed binder)
# chain: B1 chain with L21R, A90H
# B42: D65R (designed binder)
# chain: B1 chain with L21R, D65R
# B43: E16Q (designed binder)
# chain: B1 chain with E16Q, L21R
# B44: Q4W (designed binder)
# chain: B1 chain with Q4W, L21R
# B45: K72G (designed binder)
# chain: B1 chain with L21R, K72G
# B46: E18A (designed binder)
# chain: B1 chain with E18A, L21R
# B47: S53F (designed binder)
# chain: B1 chain with L21R, S53F
# B48: E99Y (designed binder)
# chain: B1 chain with L21R, E99Y
# B49: L41A (designed binder)
# chain: B1 chain with L21R, L41A
# B50: H78T (designed binder)
# chain: B1 chain with L21R, H78T
# B51: R21T (designed binder)
# chain: B1 chain with L21T
# B52: R50C (designed binder)
# chain: B1 chain with L21R, R50C
# B53: L39W (designed binder)
# chain: B1 chain with L21R, L39W
# B54: Y22F (designed binder)
# chain: B1 chain with L21R, Y22F
# B55: Q48V (designed binder)
# chain: B1 chain with L21R, Q48V
# B56: S51W (designed binder)
# chain: B1 chain with L21R, S51W
# B57: A42F (designed binder)
# chain: B1 chain with L21R, A42F
# B58: E73F (designed binder)
# chain: B1 chain with L21R, E73F
# B59: F20D (designed binder)
# chain: B1 chain with F20D, L21R
# Target: T1, TNFR1
# Assay: yeast display SC50
row,apparent Kd (screen) [nM],Binder
1,0.653,B1
2,0.49,B2
3,0.593,B3
4,0.539,B4
5,0.718,B5
6,0.49,B6
7,0.653,B7
8,0.653,B8
9,0.446,B9
10,0.593,B10
11,0.653,B11
12,0.49,B12
13,24.4,B13
14,0.653,B14
15,0.956,B15
16,2.05,B16
17,0.539,B17
18,0.446,B18
19,1.27,B19
20,1.27,B20

row,apparent Kd (screen) [nM],Binder
1,1.05,B21
2,2.73,B22
3,0.405,B23
4,0.539,B24
5,0.718,B25
6,0.49,B26
7,7.78,B27
8,2.25,B28
9,13.8,B29
10,0.593,B30
11,2.25,B31
12,0.956,B32
13,0.446,B33
14,5.84,B34
15,0.49,B35
16,0.718,B36
17,0.653,B37
18,0.539,B38
19,0.49,B39
20,1.27,B40

row,apparent Kd (screen) [nM],Binder
1,0.869,B41
2,0.718,B42
3,0.653,B43
4,0.539,B44
5,0.653,B45
6,0.718,B46
7,0.956,B47
8,0.718,B48
9,2.48,B49
10,0.869,B50
11,0.956,B51
12,0.539,B52
13,0.869,B53
14,0.49,B54
15,1.27,B55
16,0.446,B56
17,3.3,B57
18,0.653,B58
19,11.4,B59
